Earlier results on 1 substance are cited in paper PMC8989918.

Series [1] addresses PTPN22 SH3-binding peptide (Homo sapiens) (UniProt Q9Y2R2).
The target of series [2] is PTPN12 (PTP-PEST) (Homo sapiens) (UniProt Q05209).
Chain of PTPN12 (PTP-PEST) (Homo sapiens) (Q05209 whole entry): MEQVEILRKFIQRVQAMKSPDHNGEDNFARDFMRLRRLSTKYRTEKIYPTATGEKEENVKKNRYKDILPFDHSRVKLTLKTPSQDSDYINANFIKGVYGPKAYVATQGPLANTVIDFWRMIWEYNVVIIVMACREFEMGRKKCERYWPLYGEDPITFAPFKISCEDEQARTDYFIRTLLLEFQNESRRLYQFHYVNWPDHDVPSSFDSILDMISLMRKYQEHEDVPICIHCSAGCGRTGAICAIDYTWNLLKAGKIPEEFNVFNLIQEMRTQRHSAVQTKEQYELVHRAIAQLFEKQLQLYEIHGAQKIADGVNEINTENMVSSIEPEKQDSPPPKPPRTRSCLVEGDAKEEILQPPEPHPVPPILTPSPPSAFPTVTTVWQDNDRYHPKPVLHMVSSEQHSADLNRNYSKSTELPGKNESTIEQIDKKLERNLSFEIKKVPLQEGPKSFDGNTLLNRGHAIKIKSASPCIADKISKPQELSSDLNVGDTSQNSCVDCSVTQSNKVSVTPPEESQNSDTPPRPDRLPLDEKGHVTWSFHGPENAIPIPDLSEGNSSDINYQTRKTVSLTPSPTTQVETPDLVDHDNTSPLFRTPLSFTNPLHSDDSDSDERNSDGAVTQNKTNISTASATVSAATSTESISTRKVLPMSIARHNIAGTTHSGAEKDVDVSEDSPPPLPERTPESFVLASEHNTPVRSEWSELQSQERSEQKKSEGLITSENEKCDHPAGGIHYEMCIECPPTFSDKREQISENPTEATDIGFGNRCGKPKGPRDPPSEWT

Chain of Csk SH3 (P41240 6-73): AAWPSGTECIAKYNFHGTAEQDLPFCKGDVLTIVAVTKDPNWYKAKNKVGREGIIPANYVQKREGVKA
Chain of PTPN22 SH3-binding peptide (Homo sapiens) (Q9Y2R2 whole entry): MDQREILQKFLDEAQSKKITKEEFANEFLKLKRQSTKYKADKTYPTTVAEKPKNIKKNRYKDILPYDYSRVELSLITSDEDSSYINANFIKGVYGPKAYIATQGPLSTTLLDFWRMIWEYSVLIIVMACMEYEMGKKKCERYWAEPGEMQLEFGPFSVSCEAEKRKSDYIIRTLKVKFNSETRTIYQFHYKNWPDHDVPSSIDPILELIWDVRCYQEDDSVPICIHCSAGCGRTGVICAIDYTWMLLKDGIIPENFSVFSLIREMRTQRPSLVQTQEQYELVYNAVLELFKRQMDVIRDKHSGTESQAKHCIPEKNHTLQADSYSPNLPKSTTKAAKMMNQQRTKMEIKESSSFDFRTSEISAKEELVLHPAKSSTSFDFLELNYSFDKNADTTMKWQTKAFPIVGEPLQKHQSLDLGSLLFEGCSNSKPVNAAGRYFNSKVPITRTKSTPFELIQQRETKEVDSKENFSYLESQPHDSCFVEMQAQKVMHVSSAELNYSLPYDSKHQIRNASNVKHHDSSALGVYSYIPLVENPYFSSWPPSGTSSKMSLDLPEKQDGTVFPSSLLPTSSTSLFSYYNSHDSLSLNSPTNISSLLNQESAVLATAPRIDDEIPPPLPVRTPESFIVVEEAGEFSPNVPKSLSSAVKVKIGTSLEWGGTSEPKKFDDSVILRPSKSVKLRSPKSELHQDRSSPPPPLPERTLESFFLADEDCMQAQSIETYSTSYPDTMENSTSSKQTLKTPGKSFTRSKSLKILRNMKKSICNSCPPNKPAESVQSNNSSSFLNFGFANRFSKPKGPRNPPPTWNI

As usually defined, the Kd is the equilibrium constant for the complex coming apart. Turning to Csk SH3 (from UniProt P41240), the Kd was 0.8 µM in series [1] and 8 µM in series [2].
